Measurements from patent publication US20220089710A1, “Method of Treating Signs and Symptoms of Osteoarthritis” (Pfizer Inc., priority 2019, published 2022).

Test system: patients with osteoarthritis (OA) of the knee or hip
Experiment: Example 3: adjudicated joint safety outcomes (patient-level and joint-level) and total joint replacements, Safety Population
Assay type: in vivo, human
Source text: Central radiology readers (Central Readers) may be board certified radiologists or have the international equivalent as musculoskeletal radiologists. The Central Readers may be governed by an imaging atlas and an imaging Charter which includes a specific description of the scope of their responsibilities. Central Readers may review the radiology images at Screening for assessment of eligibility (including determination of Kellgren-Lawrence Grade) and identification of exclusionary joint conditions such as rapidly progressive osteoarthritis, atrophic or hypotrophic osteoarthritis, subchondral insufficiency fractures (spontaneous osteonecrosis of the knee [SPONK]), primary osteonecrosis and pathological fractures. After start of treatment, the Central Reader may review radiology images for diagnosis of joint conditions that would warrant further evaluation by the Adjudication Committee such as possible or probable rapidly progressive osteoarthritis, subchondral insufficiency fractures (spontaneous osteonecrosis of the knee [SPONK]), primary osteonecrosis or pathological fracture.
For subjects who are identified with a possible or probable joint event (i.e., rapidly progressive osteoarthritis, subchondral insufficiency fractures, spontaneous osteonecrosis of the knee (SPONK), primary osteonecrosis or pathological fracture) and subjects undergoing total joint replacement for any reason, all images and other source documentation may be provided to the blinded Adjudication Committee for review and adjudication of the event. The Adjudication Committee's assessment of the event may represent the final classification of the event.
This study was designed with a total (post-randomization) duration of 80 weeks and consisted of three periods: Screening (up to a maximum of 37 days), Double-blind Treatment (56 weeks), and Safety Follow-up (24 weeks) (FIG. 1). The Screening Period included a Washout Period (lasting 2-30 days) if required, and an Initial Pain Assessment Period (7 days prior to Randomization/Baseline; minimum 3 days).

[1] = 5 mg SC, primary outcome per subject
[2] = tanezumab 2.5 mg (N = 1002), joint-level
[3] = tanezumab 5 mg (N = 998), joint-level

Substance: tanezumab: humanized immunoglobulin G Type 2 (IgG2) monoclonal antibody directed against human nerve growth factor (NGF); SEQ ID NOs: 9 or 11 and 10
- Normal Progression of OA: n [1]: 79
- Not enough information to determine Rapid vs. Normal Progression of OA: n [1]: 0
- Other Joint Outcome: % [1]: (2.1%)
- Other Joint Outcome: n [1]: 21
- Pathological Fracture: n [1]: 0
- Primary Composite Joint Safety Endpoint: % [1]: 7.1% and (7.1%)
- Primary Composite Joint Safety Endpoint: n [1]: 71
- Primary Osteonecrosis: % [1]: (0.1%)
- Primary Osteonecrosis: n [1]: 1
- Rapidly Progressive OA type 1: % [1]: (4.9%)
- Rapidly Progressive OA type 1: n [1]: 49
- Rapidly Progressive OA type 2: % [1]: 1.4% and (1.4%)
- Rapidly Progressive OA type 2: n [1]: 14
- Rapidly Progressive OA: % [1]: (6.3%)
- Rapidly Progressive OA: n [1]: 63
- Secondary Composite Joint Safety Endpoint: % [1]: (2.2%)
- Secondary Composite Joint Safety Endpoint: n [1]: 22
- Subchondral Insufficiency Fracture: % [1]: (0.7%)
- Subchondral Insufficiency Fracture: n [1]: 7
- Rapidly Progressive OA type 1: Associated with TJR No, % [2]: (90.0%)
- Rapidly Progressive OA type 1: Associated with TJR Yes, % [2]: (10.0%)
- Rapidly Progressive OA type 1: Baseline Kellgren-Lawrence Grade of Affected Joint 0, % [2]: (3.3%)
- Rapidly Progressive OA type 1: Baseline Kellgren-Lawrence Grade of Affected Joint 1, % [2]: (20.0%)
- Rapidly Progressive OA type 1: Baseline Kellgren-Lawrence Grade of Affected Joint 2, % [2]: (36.7%)
- Rapidly Progressive OA type 1: Baseline Kellgren-Lawrence Grade of Affected Joint 3, % [2]: (40.0%)
- Rapidly Progressive OA type 1: Joint affected Hip, % [2]: (13.3%)
- Rapidly Progressive OA type 1: Joint affected Knee, % [2]: (86.7%)
- Rapidly Progressive OA type 2: Associated with TJR No, % [2]: (66.7%)
- Rapidly Progressive OA type 2: Associated with TJR Yes, % [2]: (33.3%)
- Rapidly Progressive OA type 2: Baseline Kellgren-Lawrence Grade of Affected Joint 3, % [2]: (33.3%)
- Rapidly Progressive OA type 2: Baseline Kellgren-Lawrence Grade of Affected Joint 4, % [2]: (66.7%)
- Rapidly Progressive OA type 2: Joint affected Hip, % [2]: (33.3%)
- Rapidly Progressive OA type 2: Joint affected Knee, % [2]: (66.7%)
- Subchondral Insufficiency Fracture: Associated with TJR No, % [2]: (100.0%)
- Subchondral Insufficiency Fracture: Baseline Kellgren-Lawrence Grade of Affected Joint 2, % [2]: (33.3%)
- Subchondral Insufficiency Fracture: Baseline Kellgren-Lawrence Grade of Affected Joint 3, % [2]: (66.7%)
- Subchondral Insufficiency Fracture: Joint affected Hip, % [2]: (33.3%)
- Subchondral Insufficiency Fracture: Joint affected Knee, % [2]: (66.7%)
- Rapidly Progressive OA type 1: Associated with TJR No, % [3]: (84.9%)
- Rapidly Progressive OA type 1: Associated with TJR Yes, % [3]: (15.1%)
- Rapidly Progressive OA type 1: Baseline Kellgren-Lawrence Grade of Affected Joint 0, % [3]: (3.8%)
- Rapidly Progressive OA type 1: Baseline Kellgren-Lawrence Grade of Affected Joint 1, % [3]: (20.8%)
- Rapidly Progressive OA type 1: Baseline Kellgren-Lawrence Grade of Affected Joint 2, % [3]: (43.4%)
- Rapidly Progressive OA type 1: Baseline Kellgren-Lawrence Grade of Affected Joint 3, % [3]: (30.2%)
- Rapidly Progressive OA type 1: Baseline Kellgren-Lawrence Grade of Affected Joint Not Available, % [3]: (1.9%)
- Rapidly Progressive OA type 1: Joint affected Hip, % [3]: (15.1%)
- Rapidly Progressive OA type 1: Joint affected Knee, % [3]: (83.0%)
- Rapidly Progressive OA type 1: Joint affected Shoulder, % [3]: (1.9%)
- Rapidly Progressive OA type 2: Associated with TJR No, % [3]: (43.8%)
- Rapidly Progressive OA type 2: Associated with TJR Yes, % [3]: (56.3%)
- Rapidly Progressive OA type 2: Baseline Kellgren-Lawrence Grade of Affected Joint 0, % [3]: (12.5%)
- Rapidly Progressive OA type 2: Baseline Kellgren-Lawrence Grade of Affected Joint 1, % [3]: (6.3%)
- Rapidly Progressive OA type 2: Baseline Kellgren-Lawrence Grade of Affected Joint 2, % [3]: (6.3%)
- Rapidly Progressive OA type 2: Baseline Kellgren-Lawrence Grade of Affected Joint 3, % [3]: (31.3%)
- Rapidly Progressive OA type 2: Baseline Kellgren-Lawrence Grade of Affected Joint 4, % [3]: (37.5%)
- Rapidly Progressive OA type 2: Baseline Kellgren-Lawrence Grade of Affected Joint Not Available, % [3]: (6.3%)
- Rapidly Progressive OA type 2: Joint affected Hip, % [3]: (43.8%)
- Rapidly Progressive OA type 2: Joint affected Knee, % [3]: (50.0%)
- Rapidly Progressive OA type 2: Joint affected Shoulder, % [3]: (6.3%)
- Subchondral Insufficiency Fracture: Associated with TJR No, % [3]: (57.1%)
- Subchondral Insufficiency Fracture: Associated with TJR Yes, % [3]: (42.9%)
- Subchondral Insufficiency Fracture: Baseline Kellgren-Lawrence Grade of Affected Joint 0, % [3]: (14.3%)
- Subchondral Insufficiency Fracture: Baseline Kellgren-Lawrence Grade of Affected Joint 1, % [3]: (14.3%)
- Subchondral Insufficiency Fracture: Baseline Kellgren-Lawrence Grade of Affected Joint 2, % [3]: (57.1%)
- Subchondral Insufficiency Fracture: Baseline Kellgren-Lawrence Grade of Affected Joint 3, % [3]: (14.3%)
- Subchondral Insufficiency Fracture: Joint affected Hip, % [3]: (14.3%)
- Subchondral Insufficiency Fracture: Joint affected Knee, % [3]: (85.7%)
